In patent US20230406901A1:

Target: growth hormone receptor (GHR) on BAF3/GHR cells
Assay: cell-based or functional assay

Substance: growth hormone fusion protein containing a flexible linker, GH(GGGGS)4 (from UniProt P01861 100-325) (Fc fusion)
- EC50(nM), proliferation of BAF3/GHR cells (Alamar-Blue): 3.19 nM
- Relative potency, proliferation of BAF3/GHR cells (Alamar-Blue): 37.7%
